# From patent US20140274790A1
# Ends that are not written are not given here. NH2‑PEG4 = N-terminal amino-PEG4 group (N-terminal PEGylation)
# B1: N-terminally PEGylated C35A-3/15 (NH2-PEG4-…-NH2) (peptide)
# peptide: {NH2‑PEG4}-DCAYHRGELVWCT-NH2
# modifications: not fully specified (bridges); printed as NH2-PEG4-DCAYHRGELVWCT-NH2; cysteine pairing not given here; also: coupled through PEG4 amine to HiTrap NHS-activated HP column
# Biological target: human IgG (human)
# Assay: SPR sensorgram analysis
Kd [µM],koff [s⁻¹],kon [M⁻¹ s⁻¹],"ratio of ka against GFc-C35-3/15 (T5A, T7H, N8R, N10E) [fold]","ratio of kd against GFc-C35-3/15 (T5A, T7H, N8R, N10E) [fold]",ratio of Kd against GFc-C35-3/15 [fold],Binder
0.257,0.014,54000,< 0.125,0.5,–,"DCAWHRGELVWCT [GFc-C35-3/15 (T5A, Y6W, T7H, N8R, N10E)]"
–,0.025,460000,–,–,0.0417,"DCAYHRGELVWCT (not fully specified (bridges); cysteine pairing not given here) [GFc-C35-3/15 (T5A, T7H, N8R, N10E)]"

# Biological target: human IgG (human)
# Assay: SPR, synthetic peptide
Kd [µM],fold decrease of Kd against GFc-C35-3/15 [fold],fold increase of affinity against GFc-C35-3/15 [fold],ratio of Kd against C35A-3/15 [fold],fold higher affinity than GFc-C35-3/15 [fold],"ratio of Kd against C35A-3/15 (D3R, T15S) [fold]",ratio of Kd against GFc-C35-3/15 [fold],Binder
130,–,–,–,–,–,–,DCTYTNGNLVWCT [GFc-C35-3/15]
69,–,–,–,–,–,–,RCTYTNGNLVWCT [GFc-C35-3/15 (D3R)]
0.26,–,–,–,–,–,–,"DCAWHRGELVWCT [GFc-C35-3/15 (T5A, Y6W, T7H, N8R, N10E)]"
2,–,–,–,–,–,–,"DCTWHRGNLVWCT [GFc-C35-3/15 (T7H, N8R, Y6W)]"
14,–,–,–,–,–,–,GPDCTYTNGNLVWCTFH (not fully specified (bridges); cysteine pairing not given here) [GFc-C35]
0.147,–,–,–,–,–,–,"RCAYHRGELVWCS [GFc-C35-3/15 (D3R, T5A, T7H, N8R, N10E, T15S)]"
8,18,–,–,–,–,–,DCTYTRGNLVWCT [GFc-C35-3/15 (N8R)]
3,–,50,–,–,–,–,DCTYHNGNLVWCT [GFc-C35-3/15 (T7H)]
0.009,–,–,0.2,–,–,–,GPDCAYHRGELVWCTFH [C35A]
0.054,–,–,–,2400,–,–,"DCAYHRGELVWCT (not fully specified (bridges); cysteine pairing not given here) [GFc-C35-3/15 (T5A, T7H, N8R, N10E)]"
25,–,–,–,–,–,–,PDCTYTNGNLVWCTF [GFc-C35-2/16]
1.1,–,–,–,–,–,–,"DCTYHRGNLVWCT [GFc-C35-3/15 (T7H, N8R)]"
83,–,–,–,–,–,–,DCTYRNGNLVWCT [GFc-C35-3/15 (T7R)]
0.042,–,–,–,–,0.333,–,"GPRCAYHRGELVWCSFH [C35A (D3R, T15S)]"
34,–,–,–,–,–,0.25,DCTYTNGNLVWCS [GFc-C35-3/15 (T15S)]
260,–,–,–,–,–,–,DCTYTLGNLVWCT [GFc-C35-3/15 (N8L)]
61,–,–,–,–,–,–,DCAYTNGNLVWCT [GFc-C35-3/15 (T5A)]
80,–,–,–,–,–,–,DCTYTNGDLVWCT [GFc-C35-3/15 (N10D)]
4.8,–,–,–,–,–,–,"DCTYHRGNLIWCT [GFc-C35-3/15 (T7H, N8R, V12I)]"
160,–,–,–,–,–,–,DCTYTNGQLVWCT [GFc-C35-3/15 (N10Q)]
120,–,–,–,–,–,–,DCSYTNGNLVWCT [GFc-C35-3/15 (T5S)]
0.25,–,–,–,–,–,–,"DCAYHRGNLVWCT [GFc-C35-3/15 (T7H, N8R, T5A)]"
50,–,–,–,–,–,–,DCTWTNGNLVWCT [GFc-C35-3/15 (Y6W)]
26,–,–,–,–,–,–,DCTYTNGELVWCT [GFc-C35-3/15 (N10E)]
2100,–,–,–,–,–,–,DCTFTNGNLVWCT [GFc-C35-3/15 (Y6F)]
280,–,–,–,–,–,2,DCTYTNGNMVWCT [GFc-C35-3/15 (L11M)]
12,–,–,–,–,–,0.1,DCTYTNGNLIWCT [GFc-C35-3/15 (V12I)]
0.27,–,–,–,–,–,–,"DCTYHRGELVWCT [GFc-C35-3/15 (T7H, N8R, N10E)]"
42,–,–,–,–,–,–,DCTYTNGRLVWCT [GFc-C35-3/15 (N10R)]
26,–,–,–,–,–,–,DCTYSNGNLVWCT [GFc-C35-3/15 (T7S)]

# Biological target: human IgG (human)
# Assay: affinity column with 1.2 µmol immobilized peptide, 1 mL human serum applied, elution at pH 2.5, absorbance
row,protein yield of the eluted fraction D [mg],Binder
1,10.4,B1

# Biological target: human IgG (human)
# Assay: SPR, synthetic peptide on human IgG
row,Kd [µM],Binder
1,0.0093,SPDCAYHRGELVWCTFH [C35A (G1S)]
2,0.0285,GPSCAYHRGELVWCTFH [C35A (D3S)]
3,0.0114,GPDCAYHRGELVWCTHH [C35A (F16H)]
4,0.011,"SPDCAYHRGELVWCTFY [C35A (G1S, H17Y)]"
5,0.0133,GDDCAYHRGELVWCTFH [C35A (P2D)]
6,0.013,"SDDCAYHRGELVWCTFY (not fully specified; cysteine pairing not given here) [C35A (P2D, H17Y)]"
7,0.012,GPDCAYHRGELVWCTFY [C35A (H17Y)]
8,0.0144,GPDCAYHRGELVWCSFH [C35A (T15S)]
